Measured values: patent publication US20250011363A1, “OPTIMIZED SHORTENED PEPTIDE THAT BINDS TO ACETYLCHOLINE RECEPTOR, AND USE THEREOF” (SKINMED CO., LTD., priority 2021, published 2025)

Each substance was assayed against acetylcholine receptor (Homo sapiens, UniProt P02708) (assay: SPR binding affinity (RU) of optimized 5mer/6mer/7mer peptides, Examples 6-7). Conditions: 6mer-1 Top sequence; SPR; peptides tested at 10 μM.
Procedure: Based on the frequencies of occurrence of the top 7 amino acids from Table 7 in Example 5, 600 peptides comprising these amino acids (top combinations) and those comprising the 13 less frequently occurring amino acids (bottom combinations) were synthesized for each series of 5mer, 6mer-1, and 6mer-2. The binding affinity of each sequence for the acetylcholine receptor was measured using Surface Plasmon Resonance (SPR) analysis method. The peptides were tested at a concentration of 10 μM. Additionally, the average binding affinities of the top and bottom combinations in each series are depicted in FIGS. 5-7.
Representative peptides identified in Example 6, two in each library, including 5mers (73, 311) and 6mers-1 (43, 210) and 6mers-2 (136, 233), were compared with the pre-optimized 6mer, 5mer-ND, and Synake.

acetylcholine receptor, sequence (P02708 21-457): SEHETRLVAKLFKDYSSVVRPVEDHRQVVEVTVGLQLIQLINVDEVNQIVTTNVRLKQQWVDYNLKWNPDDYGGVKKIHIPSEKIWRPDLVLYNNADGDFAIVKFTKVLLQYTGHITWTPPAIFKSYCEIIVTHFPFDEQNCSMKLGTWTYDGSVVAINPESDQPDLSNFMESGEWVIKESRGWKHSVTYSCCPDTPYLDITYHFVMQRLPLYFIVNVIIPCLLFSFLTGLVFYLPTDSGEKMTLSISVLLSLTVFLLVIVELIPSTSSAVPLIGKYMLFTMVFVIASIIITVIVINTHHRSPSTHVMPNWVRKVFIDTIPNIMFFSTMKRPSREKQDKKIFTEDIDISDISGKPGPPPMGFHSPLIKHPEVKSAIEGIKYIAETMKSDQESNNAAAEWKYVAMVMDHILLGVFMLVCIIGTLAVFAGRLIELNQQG

| Substance | Binding affinity [Ru] |
| --- | --- |
| 6mer-1-360 (KRVFLK) | 148 |
| 6mer-1-254 (RKSLSK) | 137 |
| 6mer-1-285 (KRWVQR) | 122 |
| 6mer-1-258 (KKLQYK) | 137 |
| 6mer-1-227 (KRLVQK) | 139 |
| 6mer-1-391 (RRQRCK) | 131 |
| 6mer-1-331 (RKRITR) | 128 |

Same assay, conditions: 6mer-2 Top sequence; SPR; peptides tested at 10 μM

| Substance | Binding affinity [Ru] |
| --- | --- |
| 6mer-2-21 (RLFTRK) | 141 |
| 6mer-2-147 (RQYTKR) | 133 |
| 6mer-2-156 (KGLQRR) | 127 |
| 6mer-2-92 (KVVCKR) | 131 |
| 6mer-2-181 (RWQQKK) | 139 |
| 6mer-2-74 (RWIYKR) | 136 |
| 6mer-2-127 (RLYLRK) | 136 |
| 6mer-2-146 (KQLLKR) | 135 |

Same assay, conditions: SPR, Resonance Units; 5mer Bottom sequence (bottom combinations); peptides tested at 10 μM

| Substance | Binding affinity [Ru] |
| --- | --- |
| 5mer-998 (RCTAK) | 18 |
| 5mer-922 (RMWKR) | 14 |
| 5mer-781 (RIDPR) | 28 |
| 5mer-920 (KPKIK) | 15 |
| 5mer-1102 (KTHKK) | 20 |
| 5mer-708 (KPKAR) | 20 |
| 5mer-975 (RFAHK) | 18 |
| 5mer-982 (KFMHK) | 12 |
| 5mer-929 (KYTFR) | 28 |
| 5mer-618 (RMSWK) | 19 |
| 5mer-768 (RDSWR) | 11 |
| 5mer-1074 (RPCPR) | 17 |
| 5mer-758 (KCDFK) | 30 |
| 5mer-664 (KPTWR) | 17 |
| 5mer-794 (KEAPK) | 20 |
| 5mer-977 (KNMIR) | 16 |
| 5mer-608 (RDSER) | 20 |
| 5mer-685 (RNDIK) | 21 |
| 5mer-1034 (RFAKK) | 14 |
| 5mer-1107 (RPWHK) | 21 |

Same assay, conditions: SPR, Resonance Units; peptides tested at 10 μM; 6mer-1 Bottom sequence

| Substance | Binding affinity [Ru] |
| --- | --- |
| 6mer-1-1193 (KKPTNK) | 33 |
| 6mer-1-1024 (RKTEIR) | 36 |
| 6mer-1-1176 (KKADHK) | 21 |
| 6mer-1-1100 (KRMSHK) | 43 |
| 6mer-1-1062 (RRICMR) | 27 |
| 6mer-1-1028 (RRHCWR) | 36 |

Same assay, conditions: SPR, Resonance Units; peptides tested at 10 μM; 6mer-1 Bottom sequence (Table 11)

| Substance | Binding affinity [Ru] |
| --- | --- |
| 6mer-1-726 (KKHSMK) | 33 |
| 6mer-1-698 (KRFNHK) | 27 |
| 6mer-1-694 (RKYTKR) | 27 |
| 6mer-1-637 (RRFEFK) | 33 |
| 6mer-1-792 (KRKDKK) | 30 |
| 6mer-1-774 (KKEMER) | 21 |
| 6mer-1-719 (KKDAEK) | 27 |
| 6mer-1-699 (RRTTVR) | 28 |
| 6mer-1-644 (RKTWFR) | 31 |

Same assay, conditions: SPR, Resonance Units; peptides tested at 10 μM; 6mer-2 Bottom sequence

| Substance | Binding affinity [Ru] |
| --- | --- |
| 6mer-2-928 (KFCIRR) | 28 |
| 6mer-2-795 (RTHNKR) | 16 |
| 6mer-2-788 (KKEKKK) | 30 |
| 6mer-2-710 (RNKKKK) | 14 |
| 6mer-2-886 (KTWVRR) | 13 |
| 6mer-2-643 (KANPKK) | 12 |
| 6mer-2-911 (KMSGKR) | 21 |
| 6mer-2-613 (KAANRR) | 18 |
| 6mer-2-933 (RYSMKR) | 34 |
| 6mer-2-679 (RYSAKK) | 20 |
| 6mer-2-725 (KAHMKK) | 25 |
| 6mer-2-741 (KNEKKR) | 30 |
| 6mer-2-982 (RMHAKK) | 38 |
| 6mer-2-778 (RNAPKK) | 21 |

Same assay, conditions: SPR, Resonance Units; peptides tested at 10 μM; 6mer-2 Top sequence

| Substance | Binding affinity [Ru] |
| --- | --- |
| 6mer-2-443 (RQYCRR) | 122 |
| 6mer-2-471 (KWISRR) | 136 |
| 6mer-2-521 (KQYTRK) | 144 |
| 6mer-2-456 (KSVTKR) | 147 |
| 6mer-2-412 (KRFLKK) | 139 |

Same assay, conditions: SPR, Resonance Units; peptides tested at 10 μM; 6mer-2 Top sequence (Table 12)

| Substance | Binding affinity [Ru] |
| --- | --- |
| 6mer-2-281 (KGQRKK) | 149 |
| 6mer-2-291 (RRYRKR) | 154 |
| 6mer-2-257 (KRFCRK) | 144 |
| 6mer-2-351 (KLYTKR) | 135 |
| 6mer-2-269 (KWVQRK) | 123 |
| 6mer-2-279 (KSLQRK) | 148 |
| 6mer-2-376 (KQQCKR) | 141 |

Same assay, conditions: SPR, peptides at 10 μM; 6mer-2 Bottom sequence

| Substance | Binding affinity [Ru] |
| --- | --- |
| 6mer-2-1044 (KHTDKK) | 41 |
| 6mer-2-1151 (RYPVRK) | 43 |
| 6mer-2-1192 (KHKNKR) | 40 |
| 6mer-2-1015 (RDEMKR) | 29 |
| 6mer-2-1133 (KMKMKK) | 22 |
| 6mer-2-1132 (RPWERR) | 32 |
| 6mer-2-1000 (KCHDKK) | 41 |
| 6mer-2-1137 (RTDFKR) | 22 |
| 6mer-2-1157 (RNTDRK) | 37 |
| 6mer-2-1094 (KAWERK) | 43 |
| 6mer-2-1099 (REDWRR) | 21 |
| 6mer-2-1010 (RANHKK) | 36 |

Same assay, conditions: SPR, peptides tested at 10 μM; 5mer Top sequence

| Substance | Binding affinity [Ru] |
| --- | --- |
| 5mer-391 (KVFRR) | 72 |
| 5mer-189 (RLLQK) | 65 |
| 5mer-406 (KVYLR) | 84 |
| 5mer-331 (RGIQR) | 79 |
| 5mer-159 (RGQRR) | 73 |
| 5mer-440 (RQVTK) | 57 |
| 5mer-350 (KSYYK) | 59 |
| 5mer-321 (RSLSR) | 68 |
| 5mer-367 (RSVQK) | 71 |
| 5mer-112 (KRYYR) | 58 |
| 5mer-482 (KQFCK) | 75 |
| 5mer-210 (KVYYR) | 67 |
| 5mer-62 (KQLTK) | 70 |
| 5mer-511 (KSLSR) | 56 |
| 5mer-467 (RRIYR) | 83 |
| 5mer-385 (RGVYR) | 51 |
| 5mer-303 (KGRYR) | 87 |
| 5mer-382 (RLRQR) | 62 |

Same assay, conditions: SPR, peptides tested at 10 μM; 5mer Top sequence (top combinations)

| Substance | Binding affinity [Ru] |
| --- | --- |
| 5mer-299 (KGRRK) | 62 |
| 5mer-594 (KQYSR) | 50 |
| 5mer-525 (KQRYK) | 51 |
| 5mer-224 (RLQRR) | 67 |
| 5mer-290 (RGYYR) | 57 |
| 5mer-562 (RVRQR) | 70 |
| 5mer-520 (RVLLK) | 86 |
| 5mer-586 (KGRRR) | 78 |
| 5mer-254 (KLLRK) | 87 |
| 5mer-296 (KWISK) | 55 |

Same assay, conditions: SPR, peptides tested at 10 μM; 6mer-1 Bottom sequence (Table 11)

| Substance | Binding affinity [Ru] |
| --- | --- |
| 6mer-1-974 (RKPAHK) | 27 |
| 6mer-1-935 (RKKDIK) | 40 |
| 6mer-1-960 (KKCPFR) | 34 |
| 6mer-1-916 (RRNAAK) | 33 |
| 6mer-1-957 (KKPPDK) | 43 |
| 6mer-1-817 (RRIMKR) | 16 |
| 6mer-1-813 (RREDFK) | 15 |
| 6mer-1-844 (KKPMNR) | 28 |

Same assay, conditions: SPR, peptides tested at 10 μM; 6mer-1 Top sequence

| Substance | Binding affinity [Ru] |
| --- | --- |
| 6mer-1-420 (KKGQYK) | 148 |
| 6mer-1-544 (KRVICR) | 149 |
| 6mer-1-426 (KKGQYR) | 131 |
| 6mer-1-1405 (KKVQTR) | 148 |
| 6mer-1-517 (KKGLCK) | 139 |
| 6mer-1-549 (KKSYQR) | 142 |
| 6mer-1-454 (RKVLRR) | 124 |
| 6mer-1-419 (KRGFYR) | 148 |
| 6mer-1-486 (KRQVRK) | 151 |

Same assay, conditions: SPR, peptides tested at 10 μM; 6mer-1 Top sequence (top combinations)

| Substance | Binding affinity [Ru] |
| --- | --- |
| 6mer-1-18 (KKQFTR) | 145 |
| 6mer-1-142 (KKVYYK) | 123 |

Same assay, conditions: SPR; XRRGVRR-7mer and RRGVRRX-7mer

| Substance | Binding affinity, values relative to the RRGVRR sequence |
| --- | --- |
| 3680 (RRGVRRE) [compound 3680] | 33 |

Same assay, conditions: SPR; XRRQRR-6mer and RRQRRX-6mer

| Substance | Binding affinity, relative value to the RRQRR sequence |
| --- | --- |
| 3611 (SRRQRR) [compound 3611] | 121 |

Same assay, conditions: SPR; peptides tested at 10 μM; 5mer Bottom sequence

| Substance | Binding affinity [Ru] |
| --- | --- |
| 5mer-1150 (KFTNR) | 12 |
| 5mer-812 (KTEGR) | 27 |
| 5mer-876 (KETAR) | 16 |
| 5mer-872 (RKKWK) | 29 |
| 5mer-1139 (KHCWK) | 28 |
| 5mer-1147 (RDTGK) | 16 |
| 5mer-1164 (RFPWR) | 33 |
| 5mer-1158 (KYNPR) | 23 |
| 5mer-1171 (RCSWK) | 21 |
